Data from paper PMC9352680, “A comprehensive thermodynamic model for RNA binding by the Saccharomyces cerevisiae Pumilio protein PUF4”.

T1: PUF4 RNA-binding domain (Saccharomyces cerevisiae, UniProt P25339 537-888)
T1 sequence: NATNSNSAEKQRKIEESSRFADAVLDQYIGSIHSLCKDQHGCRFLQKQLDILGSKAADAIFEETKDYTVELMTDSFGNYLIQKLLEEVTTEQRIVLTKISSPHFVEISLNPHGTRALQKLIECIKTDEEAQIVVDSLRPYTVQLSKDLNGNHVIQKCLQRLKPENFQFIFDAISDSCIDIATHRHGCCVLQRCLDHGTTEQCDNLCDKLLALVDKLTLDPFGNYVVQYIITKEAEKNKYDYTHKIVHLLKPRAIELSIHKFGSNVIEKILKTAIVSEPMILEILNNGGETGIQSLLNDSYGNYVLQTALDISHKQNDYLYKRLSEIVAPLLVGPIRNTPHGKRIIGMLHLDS


Biological target: T1, PUF4 RNA-binding domain
Experiment: Mg; RNA-MaP; 20 mM Na-HEPES pH 7.4, 30 mM KOAc, 0.75 mM MgCl2, 0.1% Tween-20, 5% glycerol, 0.1 mg/mL BSA, 2 mM DTT; 25 C; 0.0125-409.6 nM protein
Conditions: tags: N-His6-TEV cleaved; C-SNAP kept, Cy3B-labelled; label: tethered on chip by stalled RNA polymerase

Binder | Kd
Id_ii_S2_P4E.4_K4.3_C4.2_[C-2A]_H4.3_A4.1_F4.1_T4.2_[G10C]_[T11A] (ssRNA) RNA: UUUGAUUAAUAUGAUAUCGUUCUUUCUAUACACUAUUACAUUCUUUCUCGAUAUCAUAUUAAUCUUU | 11.4 nM
Id_ii_S2_P4E.4_K4.3_C4.2_[C-2T]_H4.3_A4.1_F4.1_T4.2 (ssRNA) RNA: UUUGAUUAAUAUGAUAUCGUUCUUUCUUUACACUAUUAGUUUCUUUCUCGAUAUCAUAUUAAUCUUU | 2020 nM
Id_ii_S2_P4E.4_K4.3_C4.2_[C-2A]_[T-1C]_H4.3_A4.1_F4.1_T4.2_[G10C] (ssRNA) RNA: UUUGAUUAAUAUGAUAUCGUUCUUUCUACACACUAUUACUUUCUUUCUCGAUAUCAUAUUAAUCUUU | > 2300 nM
Id_ii_S2_P4E.3_K4.2_C4.2_H4.2_A4.1_F4.1_T4.2_[T11C] (ssRNA) RNA: UUUGAUUAAUAUGAUAUCGUUCUUUCUCUUAUAUAUUAGCUUCUUUCUCGAUAUCAUAUUAAUCUUU | 7.25 nM
Id_ii_S2_P4E.4_K4.3_C4.2_[C-2A]_[T-1C]_H4.3_A4.1_F4.1_T4.2_[G10A]_[T11A] (ssRNA) RNA: UUUGAUUAAUAUGAUAUCGUUCUUUCUACACACUAUUAAAUUCUUUCUCGAUAUCAUAUUAAUCUUU | > 2300 nM
Id_ii_S2_P4E.4_K4.3_C4.2_[C-2A]_[T-1A]_H4.3_A4.1_F4.1_T4.2_[G10C]_[T11C] (ssRNA) RNA: UUUGAUUAAUAUGAUAUCGUUCUUUCUAAACACUAUUACCUUCUUUCUCGAUAUCAUAUUAAUCUUU | > 2300 nM
Id_ii_S2_P4E.4_K4.3_C4.2_[C-2A]_[T-1C]_H4.3_A4.1_F4.1_T4.2_[G10T]_[T11C] (ssRNA) RNA: UUUGAUUAAUAUGAUAUCGUUCUUUCUACACACUAUUAUCUUCUUUCUCGAUAUCAUAUUAAUCUUU | > 2300 nM
Id_ii_S2_P4E.4_K4.3_C4.2_[C-2T]_H4.3_A4.1_F4.1_T4.2_[G10A] (ssRNA) RNA: UUUGAUUAAUAUGAUAUCGUUCUUUCUUUACACUAUUAAUUUCUUUCUCGAUAUCAUAUUAAUCUUU | 445 nM
Id_ii_S2_P4E.4_K4.3_C4.2_[C-2T]_H4.3_A4.1_F4.1_T4.2_[G10C]_[T11C] (ssRNA) RNA: UUUGAUUAAUAUGAUAUCGUUCUUUCUUUACACUAUUACCUUCUUUCUCGAUAUCAUAUUAAUCUUU | 306 nM
Id_ii_S2_P4E.4_K4.3_C4.2_[C-2A]_[T-1A]_H4.3_A4.1_F4.1_T4.2_[G10A] (ssRNA) RNA: UUUGAUUAAUAUGAUAUCGUUCUUUCUAAACACUAUUAAUUUCUUUCUCGAUAUCAUAUUAAUCUUU | > 2300 nM
Id_ii_S2_P4E.4_K4.3_C4.2_[C-2G]_H4.3_A4.1_F4.1_T4.2_[G10C]_[T11C] (ssRNA) RNA: UUUGAUUAAUAUGAUAUCGUUCUUUCUGUACACUAUUACCUUCUUUCUCGAUAUCAUAUUAAUCUUU | 0.865 nM
Id_ii_S2_P4E.4_K4.3_C4.2_[C-2T]_[T-1C]_H4.3_A4.1_F4.1_T4.2_[G10C] (ssRNA) RNA: UUUGAUUAAUAUGAUAUCGUUCUUUCUUCACACUAUUACUUUCUUUCUCGAUAUCAUAUUAAUCUUU | > 2300 nM
Id_ii_S2_P4E.4_K4.3_C4.2_[C-2T]_[T-1C]_H4.3_A4.1_F4.1_T4.2_[G10C]_[T11C] (ssRNA) RNA: UUUGAUUAAUAUGAUAUCGUUCUUUCUUCACACUAUUACCUUCUUUCUCGAUAUCAUAUUAAUCUUU | > 2300 nM
Id_ii_S2_P4E.4_K4.3_C4.2_[C-2G]_[T-1C]_H4.3_A4.1_F4.1_T4.2_[G10A]_[T11A] (ssRNA) RNA: UUUGAUUAAUAUGAUAUCGUUCUUUCUGCACACUAUUAAAUUCUUUCUCGAUAUCAUAUUAAUCUUU | 23.6 nM
Id_ii_S2_P4E.4_K4.3_C4.2_[C-2G]_H4.3_A4.1_F4.1_T4.2_[G10T]_[T11A] (ssRNA) RNA: UUUGAUUAAUAUGAUAUCGUUCUUUCUGUACACUAUUAUAUUCUUUCUCGAUAUCAUAUUAAUCUUU | 0.496 nM
Id_ii_S2_P4E.4_K4.3_C4.2_[C-2T]_H4.3_A4.1_F4.1_T4.2_[G10C]_[T11A] (ssRNA) RNA: UUUGAUUAAUAUGAUAUCGUUCUUUCUUUACACUAUUACAUUCUUUCUCGAUAUCAUAUUAAUCUUU | 198 nM
Id_ii_S2_P4E.4_K4.3_C4.2_[C-2T]_H4.3_A4.1_F4.1_T4.2_[G10A]_[T11C] (ssRNA) RNA: UUUGAUUAAUAUGAUAUCGUUCUUUCUUUACACUAUUAACUUCUUUCUCGAUAUCAUAUUAAUCUUU | 305 nM
Id_ii_S2_P4E.4_K4.3_C4.2_[C-2A]_H4.3_A4.1_F4.1_T4.2_[G10C] (ssRNA) RNA: UUUGAUUAAUAUGAUAUCGUUCUUUCUAUACACUAUUACUUUCUUUCUCGAUAUCAUAUUAAUCUUU | 9.11 nM
Id_ii_S2_P4E.4_K4.3_C4.2_[C-2T]_[T-1A]_H4.3_A4.1_F4.1_T4.2 (ssRNA) RNA: UUUGAUUAAUAUGAUAUCGUUCUUUCUUAACACUAUUAGUUUCUUUCUCGAUAUCAUAUUAAUCUUU | > 2300 nM
Id_ii_S2_P4E.4_K4.3_C4.2_[C-2A]_[T-1A]_H4.3_A4.1_F4.1_T4.2_[G10C] (ssRNA) RNA: UUUGAUUAAUAUGAUAUCGUUCUUUCUAAACACUAUUACUUUCUUUCUCGAUAUCAUAUUAAUCUUU | > 2300 nM
Id_ii_S2_P4E.4_K4.3_C4.2_[C-2T]_[T-1C]_H4.3_A4.1_F4.1_T4.2_[G10T] (ssRNA) RNA: UUUGAUUAAUAUGAUAUCGUUCUUUCUUCACACUAUUAUUUUCUUUCUCGAUAUCAUAUUAAUCUUU | 1530 nM
Id_ii_S2_P4E.4_K4.3_C4.2_[C-2A]_H4.3_A4.1_F4.1_T4.2_[G10C]_[T11C] (ssRNA) RNA: UUUGAUUAAUAUGAUAUCGUUCUUUCUAUACACUAUUACCUUCUUUCUCGAUAUCAUAUUAAUCUUU | 10.8 nM
UCUCUUUGUUUUAUUUUCUCUU (ssRNA) [Ib_S1_P5E.1_K5.1_C5.1_H5.1_[A4T]_A5.1_F5.1_[A10T]_T5.1] | 864 nM
